The values that follow come from patent US7488573B2, “In vivo angiogenesis assay” (Children's Hospital Medical Center, priority 2002, dated 2009).

The test system of the experiment is PM vascular system. Kind of experiment: In vivo pupillary membrane (PM) angiogenesis assay in rat pups, transcorneal injection. The arrangement: species or system Sprague-Dawley rat. Conditions: after 24 hours. Here is the method:
A Sprague-Dawley rat pup, available from Taconic Farms (German Town, N.Y.), aged postconception (p.c.) day 30.5 to p.c. 34.5, was subdued with metaphane and subsequently anaesthetized with an intramuscular injection of ketamine and xylazine at 1.6 mg/g and […] respectively. The depth of anesthesia was monitored by paw pinch response and where necessary, the subject pup was maintained under anesthesia with additional doses of ketamine and xylazine intraperitoneally. The right eyelid of the rat pup was parted at the suture using a microdissecting vanna (Storz, St Louis), the eyeball gently raised, and the eyelids folded underneath to permit illumination of the eye with optic fibre light guides. The local anesthetic tetracaine hydrochloride (0.5%) was applied to the eyeball prior to parting of the eyelids. The rat pup was then placed in a silastic body mold designed to reduce movement, and kept warm with an overlaid heating element from a battery powered boot warmer (L. L. Bean, Maine). The liquid phase for the water immersion microscope objective was provided by addition of a bead of phosphate-buffered saline between the eyeball and the objective. Capillaries of the pupillary membrane were readily detected by searching through the focal axis. An eye holder as shown in FIG. 1 held the eyeball to limit movement, and to illuminate the interior of the eye.
A 5× air objective of a Zeiss Axiophot microscope (Zeiss, Thornwood, N.Y.) was positioned above the cornea of an anaesthetized rat. A beveled glass needle mounted on a micromanipulator was axially apposed to the eye holder and in this position could penetrate the cornea for delivery of the test substance directly onto the pupillary membrane.
A defined volume of a test substance was delivered to the anterior chamber using a Nanoject Variable injector (Drummond, Pa.).
After the predetermined period of angiogenic progress, the rat pup was humanely sacrificed. The treated PM was prepared as a whole mount specimen by dissecting the retina, sclera, choroid and cornea away from the lens, iris diaphragm, hyaloid vessels and pupillary membrane. The latter tissue group was then fixed overnight in 2% glutaraldehyde in 0.1 M cacodylate pH 7.4, 0.1 M sucrose. After fixation, the tissue was washed in buffer alone and dehydrated in an ethanol series (50%, 70%, 80%, 90%, 95% and 100%). The specimens where then treated for 1 hour in hexamethyldisilazane (Polysciences Inc. Pennsylvania) and then air dried overnight. After drying, they were mounted and sputter coated with approximately 100 angstroms of gold-palladium. Specimens were visualized using a JOEL SEM 840 scanning electron microscope.
The angiogenic effect on the cellular/vascular PM system was observed and recorded with imaging and recording means. […]

B1: Ang2: biotinylated recombinant human Ang2, available from Calbiochem (protein, UniProt O15123 19-496, looked up)
Angiopoietin-2: YNNFRKSMDSIGKKQYQVQHGSCSYTFLLPEMDNCRSSSSPYVSNAVQRDAPLEYDDSVQRLQVLENIMENNTQWLMKLENYIQDNMKKEMVEIQQNAVQNQTAVMIEIGTNLLNQTAEQTRKLTDVEAQVLNQTTRLELQLLEHSLSTNKLEKQILDQTSEINKLQDKNSFLEKKVLAMEDKHIIQLQSIKEEKDQLQVLVSKQNSIIEELEKKIVTATVNNSVLQKQQHDLMETVNNLLTMMSTSNSAKDPTVAKEEQISFRDCAEVFKSGHTTNGIYTLTFPNSTEEIKAYCDMEAGGGGWTIIQRREDGSVDFQRTWKEYKVGFGNPSGEYWLGNEFVSQLTNQQRYVLKIHLKDWEGNEAYSLYEHFYLSSEELNYRIHLKGLTGTAGKISSISQPGNDFSTKDGDNDKCICKCSQMLTGGWWFDACGPSNLNGMYYPQRQNTNKFNGIKWYYWKGSGYSLKATTMMIRPADF
modifications: biotin
notes: biotinylated recombinant human Ang2, available from Calbiochem
In the case of B1, under “rat pups A5, Ang2 10 nanograms/ml anterior chamber, compared to the control”, the “increase in the width of flattened vessels present in the whole mount preparations” value is 2.1 fold. The “staining by HU177 antibody (collagen remodeling of the basal lamina of the PM)” value (rat pups A5, Ang2 10 nanograms/ml anterior chamber, control showed no staining) is recorded as “significant staining”. The “number of mitotic cells in the PM blood vessels” value (rat pups A5, injection into anterior chamber (VEGF 1 nanogram/ml; Ang2 10 nanograms/ml), compared to the control (un-injected eye)) is given as “significant increase”. Further, the “diameter of capillary vessels” value (rat pups A5, injection into anterior chamber (VEGF 1 nanogram/ml; Ang2 10 nanograms/ml; anti-Tie2 50 nanograms/ml), compared to the control) was “dramatic increase”.
